System: E. necator
Test: Leaf disc assay, dry inoculum (settling tower), decrease in disease severity / hyphal growth (Example 2)
Details: decrease in disease severity (hyphal growth) relative to untreated control, value ± SE; for % decrease =/− SE TP2: time point 2; for % decrease =/− SE TP1: time point 1 (untreated control hyphal growth ≥50%)

B1: GS3929 (nucleic acid)
sense: AUUGUUGAUAAGUUCACUGGAAAUCUCCGUUAUAGGAUCUAUUCCUUCAUUUUGUUUCCGGAGUUUUUCUUCUUGUCGAGCACUCAUUUUGGUAGAGAAUGCCCAACAUGAAAGGCCCAAUUCGCGACAUACUAUGCACACAUCUAGACGAGGCGCAGUUUUGUCUUUCGUUAUCGCAAUUCCAAUGCAACGACGACAUUGUAAGACAAAAUUCUCAUGACCAAUUUUAGUAACCAAGUGAUCUCUGUUACUUCGAGGACCAAGACAAUUUUUGUGGAUUGAAGUUGAGCAUCCUUGACAGUAAAUAAGUUGGCUUGGGCCCUUGUUCGAAUUUCUCUCAUUUCCAAAGCAAACAUCACAAAAUUUAUUAUGAAAACUUCGAAAUAAAUUUU
antisense: AAAAUUUAUUUCGAAGUUUUCAUAAUAAAUUUUGUGAUGUUUGCUUUGGAAAUGAGAGAAAUUCGAACAAGGGCCCAAGCCAACUUAUUUACUGUCAAGGAUGCUCAACUUCAAUCCACAAAAAUUGUCUUGGUCCUCGAAGUAACAGAGAUCACUUGGUUACUAAAAUUGGUCAUGAGAAUUUUGUCUUACAAUGUCGUCGUUGCAUUGGAAUUGCGAUAACGAAAGACAAAACUGCGCCUCGUCUAGAUGUGUGCAUAGUAUGUCGCGAAUUGGGCCUUUCAUGUUGGGCAUUCUCUACCAAAAUGAGUGCUCGACAAGAAGAAAAACUCCGGAAACAAAAUGAAGGAAUAGAUCCUAUAACGGAGAUUUCCAGUGAACUUAUCAACAAU
  % decrease =/− SE TP2: 19 ± 7%

B2: GS3927 (nucleic acid)
sense: CUGAAUCAGAUGAUGGGGGUAAUGAACGUAUGAUAAAUAGUAAGAAACCGCGAAGUACAUGCUCGAAGACCCUAAGGGAAAAAGAUUUGAAAGAUGAUAAAGAAAAGUCCAGAUCUGAUGCUGUAGCUAAAAGAAAUGGUCGUACAGAGCGGAGAAGAACUGAAGAUCAAGAAACACAGAAGGAAUUGUCAAUUGGUACUAAAAAUACAAUGUGCAAUAGCACAGACUCUUCUAAAGUCUCUACAACGAUUGAAUCUCUUGAGUCUCCGACAUUAUCAAAUGGUAGAGUUUCAGACAAUUCAUCUAACAACCAAUUUCCAAUACCUUUAAAAAAAAGCUACCGUAAUUCAAAUUCUAGGAAAGGGAAAUUAGCCAAAAAUAAUUUCACAAGGGAAU
antisense: AUUCCCUUGUGAAAUUAUUUUUGGCUAAUUUCCCUUUCCUAGAAUUUGAAUUACGGUAGCUUUUUUUUAAAGGUAUUGGAAAUUGGUUGUUAGAUGAAUUGUCUGAAACUCUACCAUUUGAUAAUGUCGGAGACUCAAGAGAUUCAAUCGUUGUAGAGACUUUAGAAGAGUCUGUGCUAUUGCACAUUGUAUUUUUAGUACCAAUUGACAAUUCCUUCUGUGUUUCUUGAUCUUCAGUUCUUCUCCGCUCUGUACGACCAUUUCUUUUAGCUACAGCAUCAGAUCUGGACUUUUCUUUAUCAUCUUUCAAAUCUUUUUCCCUUAGGGUCUUCGAGCAUGUACUUCGCGGUUUCUUACUAUUUAUCAUACGUUCAUUACCCCCAUCAUCUGAUUCAG
  % decrease =/− SE TP1: 7 ± 3%

B3: GS3925 (nucleic acid)
sense: UUUGAAAAACACACAACCCCAGAAGAAUACGAUAGCAUAUCAUUGGCCAAGCACCCUCAGUUGCAUGUUGAGGAUGAUUCAUGGCAUAGAGCAACUGGUACUUGUAAGUGUAAUAACUGUUAAUGAAGUAUAUAAUCCCAAAAAAUAGAACCAUAUAACCAGCCGGUAGAAUUGAGUAUACAAUACACAAAAUGUAUACAAGGAUUGCAGAGGGUAGAUAAAACCCGUAUUUGAAGACAGGAGGCUGUGUAAGCUCCCAGCGAUCCCUAGGGCUUUUUGAAUACAUACGCAUAAUUGGAUAUAGAGACACACUGCCAAACUCUAAGAGCCUUAAUGGUAUGAAACCAA
antisense: UUGGUUUCAUACCAUUAAGGCUCUUAGAGUUUGGCAGUGUGUCUCUAUAUCCAAUUAUGCGUAUGUAUUCAAAAAGCCCUAGGGAUCGCUGGGAGCUUACACAGCCUCCUGUCUUCAAAUACGGGUUUUAUCUACCCUCUGCAAUCCUUGUAUACAUUUUGUGUAUUGUAUACUCAAUUCUACCGGCUGGUUAUAUGGUUCUAUUUUUUGGGAUUAUAUACUUCAUUAACAGUUAUUACACUUACAAGUACCAGUUGCUCUAUGCCAUGAAUCAUCCUCAACAUGCAACUGAGGGUGCUUGGCCAAUGAUAUGCUAUCGUAUUCUUCUGGGGUUGUGUGUUUUUCAAA
  % decrease =/− SE TP1: 18 ± 4%
  % decrease =/− SE TP2: 3 ± 6%

B4: GS3928 (nucleic acid)
sense: UUGAAGUGGUUAAAAAACAUGUUGAGGAAACAGAAUGGGAAGAAGAACCUUCCAAGAAUGGAAGACUUGAUAUUGAUAUAAUAACCGCGGAAGCAAUGACACUUGCUCAUCAAAUUGCAAGUGGUGAGAAGACUAAAUAUGAUCUCAUCGAUGAAGGUUGGAAUAAAAAUUCAUUCAAGGAUCGCGAUGGCCUUCCUGAUUGGUUUCUGGAUGAUGAGAGUAAACAUGAUAAACCUCAUAGACCUAUCAGUGCUGCCGCUGCAAAUGCUAUAAAAGAAAAGCUGCGAGCCCUGAAUGCUCGACCAAUCAAAAAAGUACGUGAGGCUAAGAGUCGGAAAAAAUUCAAAGCUGCCCAACGACUUGAAAAACUCCGAAAAAAAU
antisense: AUUUUUUUCGGAGUUUUUCAAGUCGUUGGGCAGCUUUGAAUUUUUUCCGACUCUUAGCCUCACGUACUUUUUUGAUUGGUCGAGCAUUCAGGGCUCGCAGCUUUUCUUUUAUAGCAUUUGCAGCGGCAGCACUGAUAGGUCUAUGAGGUUUAUCAUGUUUACUCUCAUCAUCCAGAAACCAAUCAGGAAGGCCAUCGCGAUCCUUGAAUGAAUUUUUAUUCCAACCUUCAUCGAUGAGAUCAUAUUUAGUCUUCUCACCACUUGCAAUUUGAUGAGCAAGUGUCAUUGCUUCCGCGGUUAUUAUAUCAAUAUCAAGUCUUCCAUUCUUGGAAGGUUCUUCUUCCCAUUCUGUUUCCUCAACAUGUUUUUUAACCACUUCAA
  % decrease =/− SE TP1: 15 ± 6%
  % decrease =/− SE TP2: 9 ± 7%

B5: GS1816: dsRNA trigger SEQ ID NO 174; gene target Plasma membrane ATPase (nucleic acid)
DNA: CAACCACTGAGACTTGTTCAATACATGATACACAATAGCAATCACTATCGTGACAGCAATAGAATAGCCCCAGACAACAATAATAGTGACAATGGAGGTTCTTCCGTCAGTAGATAAAAGGGAGTTTAATGTGGCAGGATCTGAAGGCTCACCAGCACCGCCAGTTAACCAACCAAAGAGACAGAAGAGAGTTGCAAGTACATCAACACCGAATATAGCAGCAACGAGTGCAAATGCAGGATAAGTCTCATCTCCTCTGGTGACAAAGATGAGCCAGTTTTCGGTGAGAGAAATTTGAAGGAATAACATTCCCTGGATAGATCCAAAGTTATCAATCATGCCACCATTAGGTAAGAAAAGCGAGCCACGTAATACCCATGTTCCAAGAGCAAGCAATATGCCAAGAACAACAGAGATAATCCAGATTTTAGGTAATTGCCACTCAACAGGTCGAATCTCAAAGTGAGCGTTGTCGTATGCAACTGCAATTGTGGCTAAATCGGCAAAAAGTGCAAGGAAGACAATTAAATCAACCCGGACAGTTTCGTTAATAATGATCATAGAGGTTACAAGATAGATTTCTAAGTGTAAACATAA
  % decrease =/− SE TP1: 61 ± 2%
  % decrease =/− SE TP2: 50 ± 7%

— patent publication US12077763B2, “RNA-based control of powdery mildew” (Greenlight Biosciences, Inc., priority 2021, dated 2024)
